Experiment: soluble on expression in E. coli; label from the status in PepcDB or PDB records

Row | Sequence | soluble on expression in E. coli
1 | GPLGSEAQSEKEEAPKPLHKVVVCVSKKLSKKQSELNGIAASLGADYRWSFDETVTHFIYQGRPNDTNREYKSVKERGVHIVSEHWLLDCAQECKHLPESLYPHTYNPK | soluble
2 | MGSDKIHHHHHHMIKHIFCDLDGTLYENGTITKEDIVAIEEIEKKGVQFNVATGRIFKQAHNIIKDSLDMNGYYVCENGSFIYDKDYNVIFKRTIDDNLVKKVIDRFESSDAQLYFKYKGDVIVGSDTTAFRHYSSDFIVDPDFEKRSSFDNLIGNIGVCSENLEELSRIELYLKSEFSEVLEIYFSGTYTLNIVPKSVSKRGSIEHVIKTLNVSPDEVATIGDSPNDICMLEGFKYSFAMSKAREDVKQSANYVVDSVKSAIDVIMEINS | not soluble
3 | MSSSGVYTCNSCVLTFDSSDEQRAHMKSDWHRYNLKRRVAQLPPISFETFDSKVSAAAASTSKSAEKEKPVTKKELKRREKQALLEKKKKLLEIARANMLENMQKSQEGNTPDLSKLSLQENEENKEKEEPKKEEPEQLTEEEMAERVMQENVRNRVDIPLEQCLFCEHNKHFKDVEENLEHMFRTHGFYIPEQKYLVDKIGLVKYMSEKIGLGNICIVCNYQGRTLTAVRQHMLAKRHCKIPYESEDERLEISEFYDFTSSYANFNSNTTPDNEDDWEDVGSDEAGSDDEDLPQEYLYNDGIELHLPTGIKVGHRSLQRYYKQDLKPEVILTEGQGTLVAAETRSFLPAFDKKGVQTQQRVWQTERFDKKRLDKRSAKFVNNQPHYRDQLLQ | soluble
4 | GPLGSASAAASGKEGVEITYGSAIKLMHEKTKFRLHSHDVPYGSGSGQQSVTGFPGVVDSNSYWIVKPVPGTTEKQGDAVKSGATIRLQHMKTRKWLHSHLHASPISGNLEVSCFGDDTNSDTGDHWKLIIEGSGKTWKQDQRVRLQHIDTSGYLHSHDKKYQRIAGGQQEVCGIREKKADNIWLAAEGVYLPLNESSK | soluble
5 | MPTLRPESPEEVQEAVRAYPRLRAQGGGTKPALSTPKEGEVLLDLSRLRGLLAYEPEEFVFTAFAGTPIAEVEEALRAHGQYLPFDPPLAGKGATLGGTVAAGLSGPLRHRYGGLRDFLLGVRFVDGEGKVVRGGGKVVKNAAGFPFHRLMVGALGAFGVMVELSFKVFPRPRTTRTLRVRREGLEEALADLERLRLLPLDLLALDFIPPATLELRLGGFERSVEARLKRLQDLLGEGEVLAEDEAHWEAVRDLGFLEGSPVWVKVPAKPHLIPRLEALPLGPRRYLDGGEVLYAGTTEEGLKALREAGLPHLVLRGAEAPLFPEPQGAFFAGVKKALDPKGRFPLG | soluble
6 | NLLEEESAVLGQAVTNLMLSGDNVNNKNIILSLIHSLETTSDILKADVIRKTLEIVLRYTADDM | soluble
7 | MKRYPRDMRGHGPTPPDAAWPGGARIAVSIVLNYEEGGENCLLHGDAQSEAFLSDIAGAQPWPGQRHWNMESIYDYGARAGFWRLHRLFTGLNIPVTVYGVATALARSPEQVAAMKSAGWEIASHGLKWVEHRDMPEEEERRQIAEAIRLHAEVVGERPRGWYTGRCSVNTVRLTAEEGGFDWISDTYDDDQPYWLETGTRDQLVIPYTLEANDMRFATAPGYIEGEQFFTYLRDSFDTLYAEGCAGQAKMFSIGLHCRLIGRPGKIAGLKRFLDYARTHERVWFPCRGDIARHWHETHPHRRRPRPSRMDRESFVAHFGGIYEHSPWIAERAFELELGPAHDSPAGLANALARIFRSATPAERLSVLKAHPDLAGKLAQARRLTASSSFEQSSAGLDALTDAERAEFATLNADYVAKHGFPFIIAVRDHDKAGILAAFETRLAHDSATEFATACRQVERIAELRLQDMLKLEHHHHHH | not soluble
8 | MKDREIFAGLSTTVPFVLRLDGRSFHRFSKDRYKKPYDKVFSDAMVKTARALVTDSGLSPSFAYTFSDEISLYVPAPVFDCRVEKLASVSAAFAASAFTLYAGASEPLAFDARVIPIEEGLFPAYLSWRQAEAWRNHMNGYAQKILQDEGVSPTNAQKQLDGMNAAALHEFAFSRGVNLALTPAWERRGICIYRDVVMRDGYNPIKDEKVSVERTIAVIDEDVPLFKSPEGTAWVLSKIRLEHHHHHH | not soluble
9 | MQLTPLQQAKPEKEEISPYAINNILSSTQSSPDNGNEADDKENSSVRRNTFPASSASTKKPRGTPYDRTNTPMTVVPQMPQFAPDFSNYNLTMNAWSEFFKKDRCMVCGDNSTGYHYGVQSCEGCKGFFRRSVHKNIAYVCTKGENCTFSYENCAANRGVRTRCQACRFAKCLAVGMNRDNVRVNKETDKDVKPSVASPNFEMTSQVKELTAAFVANMPCSTHLTSGTHAIGAIKKFIESVPALSSLLPKDEKALEMSIQKVMSGILAIRAAFTFDPITFYSCENPVNLLRGGIRNTVFNDCEVALLSGIHILQIVNGGVAEIFTSYCQGLRHQLSQTHLQEIGLCDRLLMRLGPYLNQ | not soluble
10 | MTNERVMQLIREAYEKNLTTLDLSENQLTQLPSEITELKNLTTLNLSGNQLTQLPSEIGELKSLTSFDLSVNQLTQLPPEIGELKNLTILNVYRNQLIQLLPEITELKNLTTLDLSLNKLTQLPPEIGELEHHHHHH | not soluble
11 | MKLIFQMGKQPVLEKTILLFILSIVESLKLKVVSLDEAHRYIFNLEVLELLMDRNIDDQVLELIHFGMGLEDIYHVLPEELEHTIEELKWLCIQVLSEYSMHEESEQLIEDIR | not soluble
12 | MGSDKIHHHHHHMNTNQLIEAFRKFLPAEAILHEAEDLRPYECDALSAYRQLPMIVVLPRTEAEIAAILQTCQAERIPVVARGSGTGLSGGALPHAEGVLLSLARLNHILEIDPAAGTARVQPGVRNLAISEAAAYYGMYYAPDPSSQIACSIGGNVAENSGGVHCLKYGLTVHNILRLRVLTIEGDLLEIGADALDSPGFDLLALMTGSEGMLGIVTEITVRLLPKPETVKLVMAVFDDVRKAGEAVASVIQAGIIPAGMEMMDKITIHAVEDFVHAGYDLEGAAILLCESDGMAEEVADEIERIRTILQASGATRISLAQDEAERQRFWAGRKAAFPAAGRVSPDYYCMDGTIPRKHLAHVLEQIEQLSAEYGLRCMNVFHAGDGNLHPLILYDANQPGELQKAEAFGARILEICIEAGGSLTGEHGVGIEKLNQMCLQFNDAERNRFHAIKAAFDPQSLLNPGKAIPELHRCAEFGAMHIHRGAEKFPEIPRF | not soluble
13 | MTAQPVETIKIDSEAGELGFERLGVLIKEYKPEKVVLGLPKHMNGDEGIRAEASRDYGTKLANEFGLEVAYQDERLTTAQAEKVLIDGGVRRKERKKSIDKLAAVLILQNYLDAHALKL | not soluble
14 | MKNTGTSVKFGESSTQALIRAAYRQVFGRDLYEGQRLSVAEIQLENGDISVREFIKRLAKSELFLKLYWAPHYVCKAIEYMHRRLLGRPTYGRQEMNQYFDIASKQGFYAVVEAMIDSKEYSDAFGEDTVPYERYLTPGGLEHHHHHH | not soluble
15 | MTEHNHDSQLEINNEEELLTLFDEEGNEVLYRKVLEFYHPEFKKEYVILAEEGAQSDEDDMIELVPMINEPDESGDGGKLVPIETDEEWDMIEEVVNTEMEELEHHHHHH | not soluble
16 | MGSDKIHHHHHHMKDSALRVGIYQGPEIPQSFKVYAENVWRHLPKQDIATIPFKDRKDLPKSADVLWDIRSGGGNPPPDFLLEHPLPPLVVTVHGFAPLSLNGWEYFRTLKGLIMSGQYAKHKRERWREVRTAVGSIIAVSAFVKDEAIRFTGVPADRIHVCHHGVDGNAFTPGPDTESEPYFFHVSNDEPRKNVGAIVRAFRQLRRHCRVQLVLKLPEESARNYEKIEGIRVLSGFLTTEELVHLYRHALAFIFPSLYEGFGLPILEAMACGCPVITSNVSACREIAGEAARTINPRNESELLEAMEILYRNPEERRARTAMGLRRALGFSWEESAKCHARVLYMTADRNAPVASPD | not soluble
17 | MGSDKIHHHHHHMDYRKYFEKLKSDYVYLDNAATTPPLKSVMKKALEFLENYSSIHRGTGYLAKMSTDSYENSRRVIGEYLHATKDDVVVFTANTTDSINKFALLYPFMGNEGVLISDIEHSSNMLPWFKNSGRVKMFNTGKSNKINPYSIEEELYRNPQIKIVSICGASNLTGYLTPLRDIYKICKKYGVYLLVDASQIAPHFKITLDDCDFIAFSGHKMYAPFGAGVLAGRKDVLSHIGLAPTGGGNIVYIGKRGEVIYKEPPLSLEAGTPNGLGAVTVAEAMRVLNEDIGWENMNQHNKRINEIGYKYLSDLSNIKLYYPKDQDIRINRTPTFVFDFKNVGTKVGCDILKENKIGVRCGTFCLYRLIEKVKNIDEYERKRLYRNYIVPNRELPERYSLVRASAGLMTTEEDFLRLRAAIKKVE | not soluble
18 | MSFEEFTPLNEKSLVDYIKSTPALSSKIGADKSDDDLVIKEVGDGNLNFVFIVVGSSGSLVIKQALPYIRCIGESWPMTKERAYFEATTLRKHGNLSPDHVPEVYHFDRTMALIGMRYLEPPHIILRKGLIAGIEYPFLADHMSDYMAKTLFFTSLLYHDTTEHRRAVTEFCGNVELCRLTEQVVFSDPYRVSTFNRWTSPYLDDDAKAVREDSALKLEIAELKSMFCERAQALIHGDLHTGSVMVTQDSTQVIDPEFSFYGPMGFDIGAYLGNLILAFFAQDGHATQENDRKEYKQWILRTIEQTWNLFNKRFIALWDQNKDGPGEAYLADIYNNTEVLKFVQENYMRNLLHDSLGFGAAKMIRRIVGVAHVEDFESIEEDKRRAICERSALEFAKMLLKERRKFKSIGEVVSAIQQQS | soluble
19 | MPRYPFRRFGFGALRRLLYLWVRSETINQSAFTLKIDRSKPVLYVLQQPSVSDLAVVDTECRKAGLPRPVMPVAVGDAIEPAAFFYLTPEPDWLGRQDKRGASPTLVRMLAAVGQNGLDDAQIIPVSVFWGQSPDSESSPWKLLFADNWAVTGRLRKLARILILGRKTRVQFSAPIHLRELVEQGKGHERTLRMVNRILRVHFRNLKTAVIGPDLSHRRNLVKGLLRAPLVRQAISEECESERISQEKAEGIALRYANEIASDFSYPVIRFLEVILSWFWNKLYEGVKVNHIERVQDVAQGNEIVYVPCHRSHIDYLLLSYLLFRNGLTPPHIAAGINLNMPVIGSILRRGGAFFMRRSFKGNQLYTAVFNEYLHTLFSRGFSTEYFVEGGRSRTGRMLHPRTGMLAITLRSFLRDSRRPIVFVPVYIGYERVLEGRTYLGELRGATKKKESIFDLFKVVGALKQRFGQVWVNFGEPIHLDQFLDRHQPDWQDQDLGPEYRPDWLPQTTNLLAKDVARHLNDAAAINPVNLVALALLSTSRQALDESALARILDLYLALLRKVPYSPSATLPDGDGQALIEYVKSMNLLAEQKDALGRILYLDEQNAVLATYYRNNVLHVFALPALIASFFQSNSRISREQLLRFARALYPYLQAELFIRWSLDELDAVIDQWLAALVEQDLLRQENDTFIRPAPSSRQYVLLILLARSVTQTLQRFYMAIALLLNAGQNALTAEELENLCTVMAQRLSILHGLNAPEFFDKSLFRHFIQTLLDLRVLRKDEAGKLSYHELLGELAEGAAKRVLPAEIRLSIRQVALERPAEEAAAESN | not soluble
20 | MAHHHHHHMGTLEAQTQGPGSMSSSIEIFPDSDILVAAAGKRLVGAIGAAVAARGQALIVLTGGGNGIALLRYLSAQAQQIEWSKVHLFWGDERYVPEDDDERNLKQARRALLNHVDIPSNQVHPMAASDGDFGGDLDAAALAYEQVLAASAAPGDPAPNFDVHLLGMGPEGHINSLFPHSPAVLESTRMVVAVDDSPKPPPRRITLTLPAIQRSREVWLLVSGPGKADAVAAAIGGADPVSVPAAGAVGRQNTLWLLDRDAAAKLPS | soluble
21 | MLGVRMSGSVLDEEAEKLMDYDYLLEKLYKKVPPKSGTSEYRIPEPQIIRIGSQTVIRNFREIAQALKRDPKLVARYLQKELATAASYEEESGQLILNVKVSRKVVNQFLQLFMKTYVRCPTCGSIDTKLLRQERAYMLKCEACGAEQPVKPI | soluble

From the DeepSol protein solubility set
